From the supplement of paper PMC9112550, “Optimization of the antimicrobial peptide Bac7 by deep mutational scanning” (BMC Biology, 2022)

system: Escherichia coli TOP10; assay: shrunken log2 fold change of peptide-encoding DNA abundance (4.5 h post-induction vs induction); higher = less antimicrobial activity (less host growth inhibition); conditions: time post-induction: 4.5 h; library: site-saturation at positions 5, 18, 19, 20
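Also: peptides expressed intracellularly from a pBAD plasmid library in pooled LB shake-flask culture, induced with 0.3% L-arabinose, DNA abundance read by NGS, three biological replicates, DESeq2 with apeglm shrinkage.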

Sequence | shrunken log2 fold change
RRIRERPPRLPRPRPRPDGFPRP | -0.134
RRIRHRPPRLPRPRPRPPFQPRP | 0.0923
RRIRKRPPRLPRPRPRPRPPPRP | 1.15
RRIRLRPPRLPRPRPRPFCGPRP | -0.126
RRIRMRPPRLPRPRPRPKKGPRP | 0.364
RRIRNRPPRLPRPRPRPLTNPRP | 0.00172
RRIRHRPPRLPRPRPRPHYIPRP | -0.35
RRIRTRPPRLPRPRPRPLMSPRP | 0.0356
RRIRERPPRLPRPRPRPEDIPRP | -0.00136
RRIRGRPPRLPRPRPRPFVTPRP | 0.0292
RRIRKRPPRLPRPRPRPNRYPRP | 0.0446
RRIRIRPPRLPRPRPRPISTPRP | -1.54
RRIRARPPRLPRPRPRPDDCPRP | 0.167
RRIRNRPPRLPRPRPRPRKGPRP | -0.16
RRIRFRPPRLPRPRPRPCYEPRP | -0.228
RRIRHRPPRLPRPRPRPHHFPRP | -0.0916
RRIRVRPPRLPRPRPRPIKCPRP | -0.633
RRIRGRPPRLPRPRPRPTNHPRP | 0.169
RRIRSRPPRLPRPRPRPATRPRP | 0.415
RRIRHRPPRLPRPRPRPECQPRP | -0.0633
RRIRWRPPRLPRPRPRPNVHPRP | 0.0272
RRIRWRPPRLPRPRPRPNSLPRP | -0.123
RRIRMRPPRLPRPRPRPWIIPRP | -0.0943
RRIRRRPPRLPRPRPRPKQTPRP | 0.186
RRIRLRPPRLPRPRPRPNDMPRP | -0.258

Sequence | shrunken log2 fold change
RRIRLRPPRLPRPRPRPPRPPRP | 0.782
RRIRSRPPRLPRPRPRPDFNPRP | -0.411
RRIRPRPPRLPRPRPRPFWQPRP | 0.00477
RRIRPRPPRLPRPRPRPEYEPRP | -0.0375
RRIRQRPPRLPRPRPRPQFCPRP | -0.142
RRIRKRPPRLPRPRPRPLYMPRP | -0.514
RRIRKRPPRLPRPRPRPCNAPRP | -0.0429
RRIRGRPPRLPRPRPRPNYSPRP | -0.371
RRIRVRPPRLPRPRPRPLRVPRP | 0.543
RRIRKRPPRLPRPRPRPSQEPRP | -0.0223
RRIRERPPRLPRPRPRPMSPPRP | -0.0381
RRIRDRPPRLPRPRPRPSDWPRP | 0.137
RRIRPRPPRLPRPRPRPQYVPRP | -0.184
RRIRYRPPRLPRPRPRPGSVPRP | -0.101
RRIRWRPPRLPRPRPRPHMCPRP | -0.00659
RRIRVRPPRLPRPRPRPYITPRP | -0.77
RRIRLRPPRLPRPRPRPTFIPRP | -0.528
RRIRMRPPRLPRPRPRPKMLPRP | 0.231
RRIRGRPPRLPRPRPRPSDMPRP | 0.488
RRIRWRPPRLPRPRPRPCQQPRP | -0.219
RRIRMRPPRLPRPRPRPDYTPRP | -0.0182
RRIRFRPPRLPRPRPRPPHVPRP | 0.203
RRIRLRPPRLPRPRPRPNDLPRP | -0.00842
RRIRPRPPRLPRPRPRPYWAPRP | -0.365
RRIRTRPPRLPRPRPRPNFRPRP | -0.152

Sequence | shrunken log2 fold change
RRIRQRPPRLPRPRPRPEVPPRP | -0.00133
RRIRIRPPRLPRPRPRPQGNPRP | -0.304
RRIRCRPPRLPRPRPRPQKHPRP | -0.0816
RRIRVRPPRLPRPRPRPCFMPRP | -0.302
RRIRNRPPRLPRPRPRPQLWPRP | -0.252
RRIRMRPPRLPRPRPRPTMRPRP | 1.4
RRIRGRPPRLPRPRPRPKWLPRP | 0.749
RRIRGRPPRLPRPRPRPNPQPRP | 0.0794
RRIRSRPPRLPRPRPRPADFPRP | -0.0669
RRIRWRPPRLPRPRPRPHDMPRP | -0.202
RRIRCRPPRLPRPRPRPLFNPRP | -0.665
RRIRTRPPRLPRPRPRPFQEPRP | 0.00783
RRIRMRPPRLPRPRPRPIGIPRP | -0.0706
RRIRMRPPRLPRPRPRPFIYPRP | 0.892
RRIRKRPPRLPRPRPRPWKCPRP | -0.0018
RRIRSRPPRLPRPRPRPAEYPRP | -0.0544
RRIRARPPRLPRPRPRPTQFPRP | 0.071
RRIRVRPPRLPRPRPRPHPNPRP | -0.00326
RRIRCRPPRLPRPRPRPRPMPRP | 0.443
RRIRMRPPRLPRPRPRPMCWPRP | 2.09
RRIRPRPPRLPRPRPRPVACPRP | -0.0233
RRIRRRPPRLPRPRPRPPDGPRP | 0.326
RRIRSRPPRLPRPRPRPIFYPRP | -0.387
RRIRERPPRLPRPRPRPHVHPRP | -0.315
RRIRSRPPRLPRPRPRPLHEPRP | 0.339

Sequence | shrunken log2 fold change
RRIRIRPPRLPRPRPRPLYNPRP | -0.522
RRIRERPPRLPRPRPRPDHNPRP | -0.897
RRIRWRPPRLPRPRPRPDGRPRP | -0.00151
RRIRHRPPRLPRPRPRPHFNPRP | -0.42
RRIRRRPPRLPRPRPRPVSAPRP | 0.588
RRIRYRPPRLPRPRPRPFKIPRP | 0.0602
RRIRERPPRLPRPRPRPQVTPRP | -0.118
RRIRERPPRLPRPRPRPDCEPRP | -0.0494
RRIRGRPPRLPRPRPRPSVWPRP | 0.622
RRIRERPPRLPRPRPRPKALPRP | -0.113
RRIRHRPPRLPRPRPRPARQPRP | 0.14
RRIRKRPPRLPRPRPRPKACPRP | -0.00804
RRIRSRPPRLPRPRPRPTKWPRP | -0.0872
RRIRPRPPRLPRPRPRPSCKPRP | -0.189
RRIRHRPPRLPRPRPRPSTSPRP | -0.478
RRIRVRPPRLPRPRPRPLDSPRP | -0.19
RRIRARPPRLPRPRPRPDGTPRP | 0.288
RRIRPRPPRLPRPRPRPACCPRP | 0.405
RRIRRRPPRLPRPRPRPKCHPRP | 0.0704
RRIRIRPPRLPRPRPRPVECPRP | 0.00902
RRIRMRPPRLPRPRPRPSQTPRP | 0.38
RRIRNRPPRLPRPRPRPWCVPRP | -0.396
RRIRQRPPRLPRPRPRPYIWPRP | -0.0658
RRIRWRPPRLPRPRPRPCWPPRP | 0.427
RRIRHRPPRLPRPRPRPQLPPRP | 0.181

Sequence | shrunken log2 fold change
RRIRTRPPRLPRPRPRPWCKPRP | -0.202
RRIRPRPPRLPRPRPRPYEGPRP | -0.0988
RRIRPRPPRLPRPRPRPDDAPRP | -0.0674
RRIRSRPPRLPRPRPRPDHNPRP | -0.308
RRIRFRPPRLPRPRPRPLRLPRP | 0.891
RRIRMRPPRLPRPRPRPPTRPRP | 1.25
RRIRKRPPRLPRPRPRPIYDPRP | -0.0349
RRIRSRPPRLPRPRPRPYRMPRP | -0.0162
RRIRFRPPRLPRPRPRPGEMPRP | 0.123
RRIRYRPPRLPRPRPRPWHAPRP | -0.25
RRIRVRPPRLPRPRPRPNAHPRP | 0.038
RRIRGRPPRLPRPRPRPTCAPRP | 1.11
RRIRPRPPRLPRPRPRPMSDPRP | -0.195
RRIRIRPPRLPRPRPRPMMPPRP | -0.238
RRIRYRPPRLPRPRPRPSRDPRP | 0.0382
RRIRPRPPRLPRPRPRPDWEPRP | 0.19
RRIRYRPPRLPRPRPRPQIMPRP | -0.705
RRIRKRPPRLPRPRPRPKDCPRP | -0.0519
RRIRSRPPRLPRPRPRPHPSPRP | 0.0251
RRIRVRPPRLPRPRPRPQKVPRP | -0.355
RRIRMRPPRLPRPRPRPNNSPRP | -0.327
RRIRYRPPRLPRPRPRPTWHPRP | -0.349
RRIRNRPPRLPRPRPRPEYEPRP | -0.156
RRIRMRPPRLPRPRPRPYYYPRP | -0.304
RRIRNRPPRLPRPRPRPWRSPRP | 0.111

Sequence | shrunken log2 fold change
RRIRTRPPRLPRPRPRPKLWPRP | 0.401
RRIRPRPPRLPRPRPRPLRQPRP | 0.0954
RRIRHRPPRLPRPRPRPSWKPRP | -0.0518
RRIRERPPRLPRPRPRPSPPPRP | -0.013
RRIRPRPPRLPRPRPRPYRDPRP | 0.0239
RRIRMRPPRLPRPRPRPECHPRP | -0.0482
RRIRWRPPRLPRPRPRPAISPRP | -0.00844
RRIRQRPPRLPRPRPRPQCVPRP | -0.0168
RRIRKRPPRLPRPRPRPKPPPRP | 0.76
RRIRTRPPRLPRPRPRPFVWPRP | 0.00322
RRIRKRPPRLPRPRPRPPFNPRP | 0.0386
RRIRSRPPRLPRPRPRPQYRPRP | -0.234
RRIRLRPPRLPRPRPRPDPFPRP | -0.228
RRIRKRPPRLPRPRPRPVAQPRP | 0.541
RRIRIRPPRLPRPRPRPLVNPRP | -0.814
RRIRQRPPRLPRPRPRPWAFPRP | -0.000467
RRIRKRPPRLPRPRPRPRGAPRP | 0.891
RRIRHRPPRLPRPRPRPTIVPRP | -0.292
RRIRDRPPRLPRPRPRPECQPRP | -0.00804
RRIRSRPPRLPRPRPRPAGDPRP | 0.116
RRIRVRPPRLPRPRPRPVGDPRP | 0.294
RRIRFRPPRLPRPRPRPDCNPRP | -0.179
RRIRIRPPRLPRPRPRPGRIPRP | 0.0431
RRIRMRPPRLPRPRPRPGRGPRP | 1.26
RRIRLRPPRLPRPRPRPKMDPRP | -0.428
